Key:
Assay in all cases: stopped-flow fluorescence anisotropy
Conditions in all cases: T17 carries SIMA; Kd: 5 mM Tricine-KOH pH 8.0, 100 mM KCl, 3.4 mM MgCl2, 0.1 mM each dNTP, 0.01% Tween 20, 20 nM hairpin, 55 C (SYTO 13 1/5000 listed in the shared buffer)
Taq pol E507Q E507Q = Taq pol E507Q E507Q (UniProt P19821)
Taq pol H639F H639F = Taq pol H639F H639F (UniProt P19821)
[1] = target: Taq pol E708Q-D732N E708Q;D732N (UniProt P19821)
[2] = target: Taq pol D578Q-D732N D578Q;D732N (UniProt P19821)
Taq pol S515F S515F = Taq pol S515F S515F (UniProt P19821)
Taq pol F667Y F667Y = Taq pol F667Y F667Y (UniProt P19821)
Taq pol M747Q M747Q = Taq pol M747Q M747Q (UniProt P19821)
Taq pol E708D E708D = Taq pol E708D E708D (UniProt P19821)
Taq pol R660V R660V = Taq pol R660V R660V (UniProt P19821)
[3] = target: Taq pol F667I-R728N-M747S F667I;R728N;M747S (UniProt P19821)
[4] = target: Taq pol S515N-M747S S515N;M747S (UniProt P19821)
Taq pol R660S R660S = Taq pol R660S R660S (UniProt P19821)
[5] = target: Taq pol D578H-M747Q D578H;M747Q (UniProt P19821)
[6] = target: Taq pol E742K-A743R E742K;A743R (UniProt P19821)
Taq pol H639A H639A = Taq pol H639A H639A (UniProt P19821)
[7] = target: Taq pol V586N-M747T V586N;M747T (UniProt P19821)
Taq pol M747E M747E = Taq pol M747E M747E (UniProt P19821)
[8] = target: Taq pol E507K-D732N E507K;D732N (UniProt P19821)
Taq pol E507K E507K = Taq pol E507K E507K (UniProt P19821)
[9] = target: Taq pol D578N-V783I D578N;V783I (UniProt P19821)
Taq pol D578K D578K = Taq pol D578K D578K (UniProt P19821)
Taq pol E708L E708L = Taq pol E708L E708L (UniProt P19821)
[10] = target: Taq pol D578S-R728Q-M747V D578S;R728Q;M747V (UniProt P19821)
[11] = target: Taq pol R573K-D578N R573K;D578N (UniProt P19821)
Taq pol S515D S515D = Taq pol S515D S515D (UniProt P19821)
[12] = target: Taq pol E507K-A570G-M747Q E507K;A570G;M747Q (UniProt P19821)
Taq pol H639Y H639Y = Taq pol H639Y H639Y (UniProt P19821)
Taq pol WT = Taq pol WT (UniProt P19821)
[13] = target: Taq pol E507K-D578E E507K;D578E (UniProt P19821)
[14] = target: Taq pol D578S-R728Q-M747Q D578S;R728Q;M747Q (UniProt P19821)
Taq pol M747D M747D = Taq pol M747D M747D (UniProt P19821)
[15] = target: Taq pol E507Q-D578S-I614M E507Q;D578S;I614M (UniProt P19821)
[16] = target: Taq pol E507R-R573K-E708Q E507R;R573K;E708Q (UniProt P19821)
Taq pol E626K E626K = Taq pol E626K E626K (UniProt P19821)
[17] = target: Taq pol S515D-K540M S515D;K540M (UniProt P19821)
Taq pol D732N D732N = Taq pol D732N D732N (UniProt P19821)
Taq pol D578N D578N = Taq pol D578N D578N (UniProt P19821)
[18] = target: Taq pol E507K-A570T-M747Q E507K;A570T;M747Q (UniProt P19821)
[19] = target: Taq pol E507Q-S515N-D578S E507Q;S515N;D578S (UniProt P19821)
Taq pol F667M F667M = Taq pol F667M F667M (UniProt P19821)
Taq pol E507D E507D = Taq pol E507D E507D (UniProt P19821)
Taq pol S515N S515N = Taq pol S515N S515N (UniProt P19821)
[20] = target: Taq pol E507K-R536K-R660V E507K;R536K;R660V (UniProt P19821)
Taq pol F667A F667A = Taq pol F667A F667A (UniProt P19821)
Taq pol D578W D578W = Taq pol D578W D578W (UniProt P19821)
[21] = target: Taq pol E507Q-D578S-R728Q E507Q;D578S;R728Q (UniProt P19821)
Taq pol I707L I707L = Taq pol I707L I707L (UniProt P19821)

“GCTATGCGTGAGCGCTTTTGCGCTCACGCATAGC [H-Kd hairpin]” showed a Kd (Taq pol E507Q E507Q) of 4.78 nM, a Kd (Taq pol H639F H639F) of 6.55 nM and a Kd [1] of 4.33 nM. It also gave a Kd [2] of 0.8 nM, a Kd (Taq pol S515F S515F) of 211 nM and a Kd (Taq pol F667Y F667Y) of 11.7 nM. It also gave a Kd (Taq pol M747Q M747Q) of 4.41 nM, a Kd (Taq pol E708D E708D) of 4.51 nM and a Kd (Taq pol R660V R660V) of 6.21 nM. The Kd [3] was 14.4 nM, the Kd [4] was 1.93 nM and the Kd (Taq pol R660S R660S) was 10.6 nM. For the same sequence, the Kd [5] was 3.29 nM, the Kd [6] was 0.51 nM and the Kd (Taq pol H639A H639A) was 8.14 nM. It also gave a Kd [7] of 14.1 nM, a Kd (Taq pol M747E M747E) of 25.5 nM and a Kd [8] of 1.69 nM. For the same sequence, the Kd (Taq pol E507K E507K) was 3.38 nM, the Kd [9] was 2.19 nM and the Kd (Taq pol D578K D578K) was 4.2 nM. For the same sequence, the Kd (Taq pol E708L E708L) was 6.82 nM, the Kd [10] was 13.8 nM and the Kd [11] was 4.33 nM. For the same sequence, the Kd (Taq pol S515D S515D) was 80.7 nM, the Kd [12] was 5.15 nM and the Kd (Taq pol H639Y H639Y) was 7.46 nM. The Kd (Taq pol WT) was 6.19 nM, the Kd [13] was 1.07 nM and the Kd [14] was 10.3 nM. For the same sequence, the Kd (Taq pol M747D M747D) was 29.6 nM, the Kd [15] was 1.17 nM and the Kd [16] was 0.96 nM. For the same sequence, the Kd (Taq pol E626K E626K) was 5.74 nM, the Kd [17] was over 200 nM and the Kd (Taq pol D732N D732N) was 2.6 nM. The Kd (Taq pol D578N D578N) was 4.26 nM, the Kd [18] was 1.53 nM and the Kd [19] was 2.91 nM. It also gave a Kd (Taq pol F667M F667M) of 8.79 nM, a Kd (Taq pol E507D E507D) of 21.4 nM and a Kd (Taq pol S515N S515N) of 6.71 nM. For the same sequence, the Kd [20] was 0.79 nM, the Kd (Taq pol F667A F667A) was 11.1 nM and the Kd (Taq pol D578W D578W) was 4.99 nM. For the same sequence, the Kd [21] was 6.29 nM and the Kd (Taq pol I707L I707L) was 8.54 nM.

From PMC11666352
